Reference: paper PMC6854486

System: RcGTA gp1 (small terminase TerS), MBP fusion (Rhodobacter capsulatus SB1003)
Test: EMSA
Settings: 25 mM HEPES pH 8.0, 50 mM K-glutamate, 1 mM DTT, 0.05% Triton X-100, 4% glycerol, 1 ug poly(dI-dC), 100 ng DNA in 10 ul, room temperature 30 min; 0.8% agarose …

| Substance | binding signal (% bound at 40 uM protein) |
| --- | --- |
| rcc01397 flanking amplicon | 87 |
| rcc01398 flanking amplicon (1.4 kbp) | 87 |
